# In the supplement of paper PMC9233669:
# This sample holds only a part of the variants without activity.
# Columns and labels:
# biotinyl-Phe-oxazolone = test: self-aminoacylation, catalytic enhancement (BFO) (fold over background); higher = more active; k-Seq, kA / k0A0; sequences stand for … in GGGAAUGGAUCCACAUCUACGAAUUC…UUCACUGCAGACUUGACGAAGCUG
# How it was run: (§1)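 Mutagenized RNA pools (0.43 μM; 21-nt variable region) were treated with 2–1250 μM of each biotinyl-aminoacyl-oxazolone. Conditions were 50 μL HEPES/NaCl/KCl/MgCl2/CaCl2 buffer, 5% acetonitrile, pH 6.9–7.0, room temperature, 90 minutes. Catalytic enhancement, the median kA relative to the uncatalyzed rate, was derived from streptavidin capture, qPCR and Illumina sequencing.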
# biotinyl-Ile-oxazolone = test: self-aminoacylation, catalytic enhancement (BIO) (fold over background); higher = more active; k-Seq, kA / k0A0; sequences stand for … in GGGAAUGGAUCCACAUCUACGAAUUC…UUCACUGCAGACUUGACGAAGCUG
# How it was run: as §1
# biotinyl-Trp-oxazolone = test: self-aminoacylation, catalytic enhancement (BWO) (fold over background); higher = more active; k-Seq, kA / k0A0; sequences stand for … in GGGAAUGGAUCCACAUCUACGAAUUC…UUCACUGCAGACUUGACGAAGCUG
# How it was run: as §1
# biotinyl-Leu-oxazolone = test: self-aminoacylation, catalytic enhancement (BLO) (fold over background); higher = more active; k-Seq, kA / k0A0; sequences stand for … in GGGAAUGGAUCCACAUCUACGAAUUC…UUCACUGCAGACUUGACGAAGCUG
# How it was run: as §1
# biotinyl-Met-oxazolone = test: self-aminoacylation, catalytic enhancement (BMO) (fold over background); higher = more active; k-Seq, kA / k0A0; sequences stand for … in GGGAAUGGAUCCACAUCUACGAAUUC…UUCACUGCAGACUUGACGAAGCUG
# How it was run: as §1
# biotinyl-Val-oxazolone = test: self-aminoacylation, catalytic enhancement (BVO) (fold over background); higher = more active; k-Seq, kA / k0A0; sequences stand for … in GGGAAUGGAUCCACAUCUACGAAUUC…UUCACUGCAGACUUGACGAAGCUG
# How it was run: as §1
Sequence,self-aminoacylation (biotinyl-Phe-oxazolone),self-aminoacylation (biotinyl-Ile-oxazolone),self-aminoacylation (biotinyl-Trp-oxazolone),self-aminoacylation (biotinyl-Leu-oxazolone),self-aminoacylation (biotinyl-Met-oxazolone),self-aminoacylation (biotinyl-Val-oxazolone)
CCACAGUUCAAGCAAUCAGUC [Fam1B.1 aminoacylation ribozyme variant],1.73,0.829,0.814,0.76,0.662,0.781
CUAGUUCAAAUAAUCGGUCUG [Fam1A.1 aminoacylation ribozyme variant],3.78,0.901,2.87,0.879,0.872,0.793
CUACUUCAAACAAUCGCUAUG [Fam1A.1 aminoacylation ribozyme variant],1.32,0.99,0.755,0.878,0.958,0.973
AAGUUUGCUAAGAGUCGCAUG [Fam3.1 aminoacylation ribozyme variant],1.82,0.902,1.69,1.03,1.07,1.1
CUAGUUCAAAGAAUCGGUCUG [Fam1A.1 aminoacylation ribozyme variant],1.5,0.967,1.44,1.14,1.04,0.951
ACACACCUCAAGCAAUCGGUC [Fam1B.1 aminoacylation ribozyme variant],1.19,0.848,0.883,0.763,0.58,0.927
CCACACUUCAAGUAAUGGGUC [Fam1B.1 aminoacylation ribozyme variant],0.642,0.868,0.546,0.803,1.04,0.66
CCACUUCAAACAAUCGUUCUG [Fam1A.1 aminoacylation ribozyme variant],2.21,0.582,1.09,0.653,0.479,0.674
AAAUUUGCUAAUAGUAGCAAG [Fam3.1 aminoacylation ribozyme variant],2.63,1.59,1.96,1.26,1.38,1.27
CCAAACUUCAAGCAAUAGGUC [Fam1B.1 aminoacylation ribozyme variant],0.911,0.605,0.458,0.527,0.574,0.602
CCACACUUCAAUCAAACGGUC [Fam1B.1 aminoacylation ribozyme variant],0.747,0.618,0.456,0.575,0.543,0.757
AUUCACCUGGGUCAUCGGUUG [Fam2.2 aminoacylation ribozyme variant],3.76,1.25,1.62,1.4,0.904,1.44
AAUACCCUGGUCAUCGAAUGA [Fam2.1 aminoacylation ribozyme variant],0.529,0.855,1.17,0.724,0.76,0.781
AUUCACGGAGGUCAUCGGGUG [Fam2.2 aminoacylation ribozyme variant],65.1,4.28,7.23,9.33,7.36,6.35
CUACACUUCCAGCAAUCGGUC [Fam1B.1 aminoacylation ribozyme variant],0.865,1.07,0.707,1.1,0.787,1.07
AUUACCCUAGUCCUCGAGUGA [Fam2.1 aminoacylation ribozyme variant],15.9,2.2,4.08,3.93,4.15,2.34
AAGUUUGCUAAUAGGCGCAGG [Fam3.1 aminoacylation ribozyme variant],0.997,0.831,1.18,0.907,0.67,0.965
AUUACCCUGGUAUUCGAGUGA [Fam2.1 aminoacylation ribozyme variant],42.4,3.56,9.54,7.89,7.43,3.65
AUUCCCCUGGUCAUCGAGUGC [Fam2.1 aminoacylation ribozyme variant],1.33,1.36,2.07,1.63,1.35,1.64
ACACACUUCAAGCAAUAGGUC [Fam1B.1 aminoacylation ribozyme variant],1.57,0.894,0.901,0.737,0.828,0.976
CUACUUGAAACAAUCGGGCUG [Fam1A.1 aminoacylation ribozyme variant],1.26,1.51,2.37,1.83,1.95,1.93
GUUCACCUAGGUCACCGGGUG [Fam2.2 aminoacylation ribozyme variant],28.5,4.06,6.73,5.53,3.6,3.55
AUUACCCUGGUCAGCGAAUGA [Fam2.1 aminoacylation ribozyme variant],0.631,1.05,1.38,1.22,1.43,1.31
CUACUUCCAACAAUCGGUCAG [Fam1A.1 aminoacylation ribozyme variant],1.04,0.795,0.518,0.663,0.62,0.774
CCACAAUUCAAGCAAUCGGUC [Fam1B.1 aminoacylation ribozyme variant],2.8,1.17,1.69,0.973,0.936,1.16
GUUCACCUAGGUCAUCGGGUG [Fam2.2 aminoacylation ribozyme variant],180,13.7,20.1,32.5,25.5,12.5

Sequence,self-aminoacylation (biotinyl-Phe-oxazolone),self-aminoacylation (biotinyl-Ile-oxazolone),self-aminoacylation (biotinyl-Trp-oxazolone),self-aminoacylation (biotinyl-Leu-oxazolone),self-aminoacylation (biotinyl-Met-oxazolone),self-aminoacylation (biotinyl-Val-oxazolone)
AUUACCCUGGUCAACGAGUAA [Fam2.1 aminoacylation ribozyme variant],1.01,1.29,0.972,1.53,1.19,1.44
CUACUUCACACAAUCUGUCUG [Fam1A.1 aminoacylation ribozyme variant],0.903,0.655,0.513,0.573,0.558,0.699
AUUACCGUUGUCAUCGAGUGA [Fam2.1 aminoacylation ribozyme variant],40.2,4.49,9.94,8.01,7.75,4.16
AUUACACUGGUCAUCGAGCGA [Fam2.1 aminoacylation ribozyme variant],0.889,1.64,1.8,2.29,2.15,1.96
ACGUUUGCUAAUUGUCGCAAG [Fam3.1 aminoacylation ribozyme variant],1.96,1.6,2.66,2.06,1.81,1.77
CCACACUUCAGGCAGUCGGUC [Fam1B.1 aminoacylation ribozyme variant],0.789,1.48,1.32,1.62,1.04,1.48
AAGUUUCCUAGUAGUCGCAAG [Fam3.1 aminoacylation ribozyme variant],1.27,1.12,0.668,1.06,1.2,1.44
AACUUUGCUAGUAGUCGCAAG [Fam3.1 aminoacylation ribozyme variant],3.31,2.68,3.53,2.9,2.63,2.67
CCACUCUGCAAGCAAUCGGUC [Fam1B.1 aminoacylation ribozyme variant],1.11,1.24,1.09,1,1.06,1.41
AUUCACCUCGGUCAUCGGGCG [Fam2.2 aminoacylation ribozyme variant],19.5,2.49,2.32,3.62,3.37,3.43
CUACUACAAACAAUGGGUCUG [Fam1A.1 aminoacylation ribozyme variant],0.955,1.07,1.69,1.15,1.37,1.14
CUAUUUAAAACAAUCGGUCUG [Fam1A.1 aminoacylation ribozyme variant],0.598,0.834,0.616,0.774,0.927,0.841
AUUACCAGGGUCAUCGAGUGA [Fam2.1 aminoacylation ribozyme variant],17.2,3.1,5.56,5.09,4.43,3.1
CCACACUUCAAUCCAUCGGUC [Fam1B.1 aminoacylation ribozyme variant],0.794,0.801,0.553,0.676,0.824,0.91
AAGUUUGCUAAUAAACGCAAG [Fam3.1 aminoacylation ribozyme variant],1.12,0.774,0.97,0.687,0.833,0.667
AUUACUCUGGUCAUCGAGUGA [Fam2.1 aminoacylation ribozyme variant],6.25,3.77,7.48,6.98,6.63,3.78
AUUACGCUGGUCAUCGAGUGG [Fam2.1 aminoacylation ribozyme variant],1.66,1.46,1.73,1.87,2.06,1.45
CUACUUCAAACCAUCGGUGUG [Fam1A.1 aminoacylation ribozyme variant],1.24,1.08,0.938,1.52,1.11,1.1
CUAUUUCAUACAAUCGGUCUG [Fam1A.1 aminoacylation ribozyme variant],0.812,0.911,0.625,0.804,0.837,0.801
AUUACCCUGGUCAUAGAGUUA [Fam2.1 aminoacylation ribozyme variant],0.667,1.25,0.786,0.921,1.39,1.1
AAGGUUUCUAAUAGUCGCAAG [Fam3.1 aminoacylation ribozyme variant],2.65,1.64,1.6,1.05,1.04,1.53
AUUCGCCUUGGUCAUCGGGUG [Fam2.2 aminoacylation ribozyme variant],74.5,5,8.13,9.99,8.81,6.21
CCACACUCCAAGCAAUCGGGC [Fam1B.1 aminoacylation ribozyme variant],1.07,2.01,2.55,1.65,1.31,2.08
CUUCACCUAGGUCAUCCGGUG [Fam2.2 aminoacylation ribozyme variant],34.5,5.77,6.39,8.19,6.47,4.94
AUUCAUCAAGGUCAUCGGGUG [Fam2.2 aminoacylation ribozyme variant],74.7,5.94,10.2,10.9,9.84,5.94
